Experimental data taken from patent US5726038.

Target: FXa/TF/FVIIa

secreted FXa/TF/FVIIa-dependent chromogenic TFPI- activity: 1 U/ml·OD
Substance: TFPI1-161 -117Gln (non-glycosylated variant of human tissue factor pathway inhibitor, first 161 amino acids, Asn117 replaced by Gln)
